Experimental findings from paper PMC12207370, “Macrocyclic Peptide Probes for Immunomodulatory Protein CD59: Potent Modulators of Bacterial Toxin Activity and Antibody‐Dependent Cytotoxicity” (Angewandte Chemie (International Ed. in English), 2025) are described below.

For this assay, the target named is T1, biotinylated CD59 (Homo sapiens, UniProt P13987).
T1 construct: Recombinant soluble human CD59 with an additional C-terminal cysteine residue
T1 sequence (P13987 26-102 limits assumed): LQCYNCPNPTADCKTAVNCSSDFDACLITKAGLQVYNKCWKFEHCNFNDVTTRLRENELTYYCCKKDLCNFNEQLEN
In words: mRNA-display cyclic peptide screen against CD59-biotin, NGS abundance after 6th selection round. Particulars: for Percentage Seq I: counts normalised by total counts of sample Seq I; for Percentage Seq I / Percentage Seq II: percentage of the pool; for Percentage Seq I / Percentage Seq II / Percentage Average / Percentage of the pool, averaged across the two sequencing samples / Percentage of the pool, Seq I / Percentage of the pool, Seq II: sheet R6; for Percentage Seq II: counts normalised by total counts of sample Seq II; for Percentage Average: percentage of the pool averaged across the two sequencing samples; for Counts Seq I / Counts Seq II: raw NGS counts of peptide sequence; for Counts Seq I: sequencing sample Seq I; for Counts Seq I / Counts Seq II / Counts (raw counts for peptide sequence), Seq I / Counts (raw counts for peptide sequence), Seq II: sheet R6 (6th selection round); for Counts Seq II: sequencing sample Seq II; for Counts (raw counts for peptide sequence), Seq I: NGS sample Seq I; for Counts (raw counts for peptide sequence), Seq II: NGS sample Seq II; for Percentage of the pool, averaged across the two sequencing samples: average of Seq I and Seq II; for Percentage of the pool, Seq I: counts normalised by total counts of NGS sample Seq I; for Percentage of the pool, Seq II: counts normalised by total counts of NGS sample Seq II. The gist of the method:
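Peptide–mRNA fusions were made by in vitro translation with a customised PURE express kit. The kit lacked release factor 1 and methionine and was supplemented with […] initiator tRNA carrying N-chloroacetyl-d-tyrosine. Thioether macrocycles were formed, then enriched and amplified over iterative rounds on CD59-biotin immobilised on streptavidin beads. NGS read counts per sequence were recorded after the 6th selection round.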

RGGTRDTIWG: the “Percentage Seq I” value was 0.078%, the “Percentage Seq II” value amounted to 0.063%, the “Percentage Average” value is listed as 0.070% and the “Counts Seq I” value is 340. Also, the “Counts Seq II” value was determined as 27.
In the same order, the values of CLDKWGRLWT are 0.042%, 0.042%, 0.042%, 182 and 18.
With LWGTHSYTYYRP, the “Counts (raw counts for peptide sequence), Seq I” value came to 60; the “Counts (raw counts for peptide sequence), Seq II” value came out at 4; the “Percentage of the pool, averaged across the two sequencing samples” value was 0.011%; the “Percentage of the pool, Seq I” value was found to be 0.014%. For the same sequence, the “Percentage of the pool, Seq II” value came to 0.009%.
In the same order, the values of IARGDWNHQFF are 56, 3, 0.010%, 0.013% and 0.007%.
In the case of HVSGNRSFTRG, the “Percentage Seq I” value is 0.024%, the “Percentage Seq II” value is 0.035%, the “Percentage Average” value worked out at 0.029% and the “Counts Seq I” value turned out to be 104. Further, the “Counts Seq II” value was 15.
In the same order, the values of WVYGSRYWRSI are 0.030%, 0.014%, 0.022%, 132 and 6.
In the case of CFAKRLSLDAL, the “Percentage Seq I” value is 0.177%, the “Percentage Seq II” value turned out to be 0.176%, the “Percentage Average” value came to 0.177% and the “Counts Seq I” value amounted to 774. The “Counts Seq II” value came out at 76.
Take FARGDWNHQFY: the “Counts (raw counts for peptide sequence), Seq I” value is 120; the “Counts (raw counts for peptide sequence), Seq II” value came to 3; the “Percentage of the pool, averaged across the two sequencing samples” value is given as 0.017%; the “Percentage of the pool, Seq I” value was found to be 0.027%. Also, the “Percentage of the pool, Seq II” value amounted to 0.007%.
In the case of GRLNECHVIWS, the “Percentage Seq I” value was found to be 0.015%, the “Percentage Seq II” value came to 0.037%, the “Percentage Average” value came to 0.026% and the “Counts Seq I” value is 65. The “Counts Seq II” value is 16.
On to ISGGRNWRAG, for which the “Counts (raw counts for peptide sequence), Seq I” value was determined as 65; the “Counts (raw counts for peptide sequence), Seq II” value is 6; the “Percentage of the pool, averaged across the two sequencing samples” value was determined as 0.014%; the “Percentage of the pool, Seq I” value amounted to 0.015%. The “Percentage of the pool, Seq II” value worked out at 0.014%.
In the case of CFTGRLTIDAV, the “Counts (raw counts for peptide sequence), Seq I” value is on record as 26; the “Counts (raw counts for peptide sequence), Seq II” value came out at 6; the “Percentage of the pool, averaged across the two sequencing samples” value was found to be 0.010%; the “Percentage of the pool, Seq I” value stood at 0.006%. Further, the “Percentage of the pool, Seq II” value was 0.014%.
Turning to CYGGRTFIYTWS, the “Counts (raw counts for peptide sequence), Seq I” value came out at 74; the “Counts (raw counts for peptide sequence), Seq II” value stood at 4; the “Percentage of the pool, averaged across the two sequencing samples” value turned out to be 0.013%; the “Percentage of the pool, Seq I” value came out at 0.017%. Moreover, the “Percentage of the pool, Seq II” value worked out at 0.009%.
As to CYGGQTFIYAWS, the “Percentage Seq I” value is on record as 0.026%, the “Percentage Seq II” value came to 0.030%, the “Percentage Average” value worked out at 0.028% and the “Counts Seq I” value is recorded as 114. Also, the “Counts Seq II” value was found to be 13.
In the case of HVFGNRSSTRG, the “Counts (raw counts for peptide sequence), Seq I” value turned out to be 69; the “Counts (raw counts for peptide sequence), Seq II” value was found to be 6; the “Percentage of the pool, averaged across the two sequencing samples” value was 0.015%; the “Percentage of the pool, Seq I” value came to 0.016%. Further, the “Percentage of the pool, Seq II” value amounted to 0.014%.
As for CFAGRLTIDAV, the “Percentage Seq I” value is reported as 2.645%, the “Percentage Seq II” value came to 2.553%, the “Percentage Average” value came to 2.599% and the “Counts Seq I” value amounted to 11574. Further, the “Counts Seq II” value came to 1100.
Consider QFAHRISSCAS, for which the “Percentage Seq I” value was 0.032%, the “Percentage Seq II” value is 0.030%, the “Percentage Average” value was found to be 0.031% and the “Counts Seq I” value is 139. Moreover, the “Counts Seq II” value is 13.
CFARRLSASFGT: the “Percentage Seq I” value was 1.002%, the “Percentage Seq II” value was determined as 0.935%, the “Percentage Average” value was 0.969% and the “Counts Seq I” value was found to be 4384. Also, the “Counts Seq II” value came to 403.
In the case of CFGGRTFIYAWS, the “Counts (raw counts for peptide sequence), Seq I” value is 34; the “Counts (raw counts for peptide sequence), Seq II” value is 5; the “Percentage of the pool, averaged across the two sequencing samples” value was found to be 0.010%; the “Percentage of the pool, Seq I” value came to 0.008%. Also, the “Percentage of the pool, Seq II” value is recorded as 0.012%.
For CLDKWGRLWS, the “Percentage Seq I” value is listed as 0.911%, the “Percentage Seq II” value is on record as 0.754%, the “Percentage Average” value worked out at 0.833% and the “Counts Seq I” value was found to be 3987. Besides, the “Counts Seq II” value is recorded as 325.
As to FVRGDLYPVLG, the “Counts (raw counts for peptide sequence), Seq I” value stood at 65; the “Counts (raw counts for peptide sequence), Seq II” value came to 5; the “Percentage of the pool, averaged across the two sequencing samples” value was 0.013%; the “Percentage of the pool, Seq I” value is on record as 0.015%. Besides, the “Percentage of the pool, Seq II” value was found to be 0.012%.
Take CPQLILRGWQ: the “Percentage Seq I” value worked out at 0.030%, the “Percentage Seq II” value was 0.044%, the “Percentage Average” value worked out at 0.037% and the “Counts Seq I” value came to 133. Besides, the “Counts Seq II” value amounted to 19.
In the same order, the values of ASWLTAPCYV are 0.032%, 0.019%, 0.025%, 138 and 8.
As to HAFGSRDIAYY, the “Counts (raw counts for peptide sequence), Seq I” value was 52; the “Counts (raw counts for peptide sequence), Seq II” value came out at 5; the “Percentage of the pool, averaged across the two sequencing samples” value is given as 0.012%; the “Percentage of the pool, Seq I” value came to 0.012%. For the same sequence, the “Percentage of the pool, Seq II” value was 0.012%.
Regarding HVFGNRSYTRG, the “Counts (raw counts for peptide sequence), Seq I” value is given as 46; the “Counts (raw counts for peptide sequence), Seq II” value worked out at 7; the “Percentage of the pool, averaged across the two sequencing samples” value was determined as 0.013%; the “Percentage of the pool, Seq I” value turned out to be 0.011%. Besides, the “Percentage of the pool, Seq II” value is given as 0.016%.
For the sequence HCWVRGSRNYA, the “Percentage Seq I” value is given as 0.029%, the “Percentage Seq II” value is given as 0.028%, the “Percentage Average” value was found to be 0.029% and the “Counts Seq I” value came to 128. The “Counts Seq II” value came out at 12.
On to FATGNRDHTRG, for which the “Percentage Seq I” value amounted to 0.027%, the “Percentage Seq II” value was 0.014%, the “Percentage Average” value is listed as 0.020% and the “Counts Seq I” value was found to be 117. Moreover, the “Counts Seq II” value came out at 6.
In the same order, the values of AVWGSAHDRWE are 0.044%, 0.046%, 0.045%, 193 and 20.
In the same order, the values of LLGSSSYVKFWY are 0.253%, 0.265%, 0.259%, 1105 and 114.
Regarding CFAGRLTTDAV, the “Percentage Seq I” value is 0.044%, the “Percentage Seq II” value is 0.044%, the “Percentage Average” value worked out at 0.044% and the “Counts Seq I” value came to 193. The “Counts Seq II” value is 19.
Consider CFVRRLNDLTTT, for which the “Percentage Seq I” value was 0.121%, the “Percentage Seq II” value is 0.137%, the “Percentage Average” value came out at 0.129% and the “Counts Seq I” value is on record as 528. In addition, the “Counts Seq II” value came out at 59.
In the same order, the values of CFTYRLSDEPSA are 0.039%, 0.016%, 0.027%, 169 and 7.
In the same order, the values of CFYQRTLGTTAS are 0.018%, 0.021%, 0.019%, 79 and 9.
Take SSWAQLPCRS: the “Percentage Seq I” value amounted to 0.041%, the “Percentage Seq II” value is reported as 0.051%, the “Percentage Average” value turned out to be 0.046% and the “Counts Seq I” value came to 180. In addition, the “Counts Seq II” value turned out to be 22.
In the same order, the values of SRNGIQFTCS are 0.036%, 0.037%, 0.037%, 158 and 16.
In the same order, the values of SAWGNRQIQYC are 0.039%, 0.028%, 0.033%, 170 and 12.
